Literature values in PMC5897016.

Target: Complement C5 (Homo sapiens) (UniProt P01031)

Kd: < 0.05 nM
Substance: eculizumab
